Source: the supplement of paper PMC7125110
± gives the standard error. Fewer inactive variants are shown than the library holds.

B1: glmS ribozyme (parent)
chain: AUAAAAGCGCCAGAACUACAGAAAUGUAGUUGACGAGGAGGAGGUUUAUCGAAUUUUCGGCGGAUGCCUCCAAA

Assays:
Conditions in all cases: with glucosamine-6-phosphate
[1] = variants of: B1; assay: self-cleavage kobs at 40 uM GlcN6P; higher = faster cleavage; RNA array
Summary of the method: (§1)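 Using a hybridised Cy3 probe at 37 °C, barcoded ribozyme variants transcribed in situ by E. coli RNA polymerase on sequenced MiSeq chips were monitored across tiles imaged over ~14 h. The flow contained glucosamine-6-phosphate from 40 μM to 10 mM in HEPES/KCl/Mg(OAc)2 buffer. Signals were normalised to baseline and to non-cleaving reference variants before per-tile medians were fit to one- or two-exponential decays to yield kobs. Weighted Michaelis–Menten fits across concentrations gave kcat and KM.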

[2] = variants of: B1; assay: self-cleavage kobs at 10000 uM GlcN6P; higher = faster cleavage; RNA array
Summary of the method: as §1

[3] = variants of: B1; assay: self-cleavage kobs at 160 uM GlcN6P; higher = faster cleavage; RNA array
Summary of the method: as §1

[4] = variants of: B1; assay: self-cleavage kobs at 640 uM GlcN6P; higher = faster cleavage; RNA array
Summary of the method: as §1

[5] = variants of: B1; assay: self-cleavage kobs at 2500 uM GlcN6P; higher = faster cleavage; RNA array
Summary of the method: as §1

Variant: AUAAAAGCGCCAGAACUACAGAAAUGUAGUUGACGAGGAGGAGGUUUUUGGAAUUUUCGGCGGAUGUCUCCAAA
- self-cleavage kobs at 40 uM GlcN6P [1]: 0.000126 ± 4.4e-05 s⁻¹

Variant: AUAAAAGCUCAAGAACUACAGAAAUGUAGUUGACGGGGAGGAGGUUUAUCGAAUUUUCGGCGGAUGCCUCCAAA
- self-cleavage kobs at 40 uM GlcN6P [1]: < 1e-05 s⁻¹

Variant: AUAAAAGCGCCAGAACUACAGAAAUGUAGUUGACGACGAGGAGGUUUAUCGAAACUUCGGCGCAUGCCGCCAAA
- self-cleavage kobs at 40 uM GlcN6P [1]: < 1e-05 s⁻¹
- self-cleavage kobs at 10000 uM GlcN6P [2]: < 1e-05 s⁻¹

Variant: AUAAAAUCGCCAGAACUACAGAAAUGUACUUGACGAGGAGGAUGUUUAUCAAAUUUUCGGCGGAUGCCUCCAAA
- self-cleavage kobs at 40 uM GlcN6P [1]: < 1e-05 s⁻¹
- self-cleavage kobs at 10000 uM GlcN6P [2]: < 1e-05 s⁻¹

Variant: AUAAAAGAGCGAGAACUACAGAAAUGUAGUUGACGAGUAGGAGGUUUAUCGAAUUUUCGACGGAUGCCUCCAAA
- self-cleavage kobs at 40 uM GlcN6P [1]: < 1e-05 s⁻¹
- self-cleavage kobs at 160 uM GlcN6P [3]: < 1e-05 s⁻¹
- self-cleavage kobs at 640 uM GlcN6P [4]: < 1e-05 s⁻¹

Variant: AUAAAAGCGCCAGAUCUACAGAAAUGUAGUUGAAGAGGAGGAGGUUUAUCGUAUUUUCGGCGGAUGCCUCCAAA
- self-cleavage kobs at 40 uM GlcN6P [1]: < 1e-05 s⁻¹
- self-cleavage kobs at 10000 uM GlcN6P [2]: < 1e-05 s⁻¹

Variant: AUAAAAGCGCCAGAACUACAGAAAUGUAGUUGACGAGGAGGAGGUUUAUCGAAUUUUCCGCGGAUGCUUCCAAA
- self-cleavage kobs at 40 uM GlcN6P [1]: < 1e-05 s⁻¹

Variant: AUAAAAGCGACAGAACUACAGAAAUGUAGUUGACGAGCAGGAGGUUUAUCGAAUUUUCGUCGGAUGCCUCUAAA
- self-cleavage kobs at 40 uM GlcN6P [1]: < 1e-05 s⁻¹

Variant: AUAAAAGCGCCAGAACUACAGAAAUGUAGUUGAAGAGGAGAAGGUUUAUCGAAUUUUCGGCGGAGGCCUCCAAA
- self-cleavage kobs at 40 uM GlcN6P [1]: < 1e-05 s⁻¹

Variant: AUAAAAGCGCCAGAACUACAGAAAUGUAGUUGACUAAGAGGAGGUUUAUCGAAUUUUCGGCGGAUGCCUCCAAA
- self-cleavage kobs at 40 uM GlcN6P [1]: < 1e-05 s⁻¹
- self-cleavage kobs at 640 uM GlcN6P [4]: < 1e-05 s⁻¹
- self-cleavage kobs at 2500 uM GlcN6P [5]: < 1e-05 s⁻¹

Variant: AUAAAAGCGCCAGAACUACAGAAAUGUAGCUGACCAGGAGGAGGUUUAUCGAAUUUUCCGCGGAUGCCUCCAAA
- self-cleavage kobs at 40 uM GlcN6P [1]: < 1e-05 s⁻¹
- self-cleavage kobs at 10000 uM GlcN6P [2]: < 1e-05 s⁻¹

Variant: AUAAAGGCGCCAGAACUACAGAAAUGUAGUUGACGAGGAGGAGUUUUAUCGAAUUUUCGGCUAAUGCCACCAAA
- self-cleavage kobs at 40 uM GlcN6P [1]: < 1e-05 s⁻¹
- self-cleavage kobs at 160 uM GlcN6P [3]: < 1e-05 s⁻¹
- self-cleavage kobs at 640 uM GlcN6P [4]: < 1e-05 s⁻¹
- self-cleavage kobs at 2500 uM GlcN6P [5]: < 1e-05 s⁻¹
- self-cleavage kobs at 10000 uM GlcN6P [2]: < 1e-05 s⁻¹

Variant: AUAAAAGCGCCAGAACUACAGAAAUGUAGCUGACUAGGAGAAGGUUAAUCGAAUUUACGGGGCAUGCCUACAAA
- self-cleavage kobs at 40 uM GlcN6P [1]: < 1e-05 s⁻¹
- self-cleavage kobs at 10000 uM GlcN6P [2]: < 1e-05 s⁻¹

Variant: AUAAAAGCGACAGAACUACAGAAAUGUAGUUCACGAGGAGGAGGUUUAUCGAAUUUUCGGCGGAUGCCUCCAAA
- self-cleavage kobs at 40 uM GlcN6P [1]: < 1e-05 s⁻¹
- self-cleavage kobs at 640 uM GlcN6P [4]: < 1e-05 s⁻¹
- self-cleavage kobs at 2500 uM GlcN6P [5]: < 1e-05 s⁻¹

Variant: AUAAAAGGCCCAGAAAUACAGAAAUGUAGUUGACGAGAAUGAGGUUUAGCGAAUUUCCGGCGGAUGCCUCCAAA
- self-cleavage kobs at 40 uM GlcN6P [1]: < 1e-05 s⁻¹
- self-cleavage kobs at 10000 uM GlcN6P [2]: < 1e-05 s⁻¹

Variant: AUAAAAGUGCCAGAACUACAGAAAUGUAGUUGACGAGGAGGAGGUUUAUCGAAUUUUCGGUGGAUGCCUCCAAA
- self-cleavage kobs at 40 uM GlcN6P [1]: < 1e-05 s⁻¹
- self-cleavage kobs at 160 uM GlcN6P [3]: < 1e-05 s⁻¹
- self-cleavage kobs at 640 uM GlcN6P [4]: < 1e-05 s⁻¹
- self-cleavage kobs at 2500 uM GlcN6P [5]: < 1e-05 s⁻¹
- self-cleavage kobs at 10000 uM GlcN6P [2]: < 1e-05 s⁻¹
